T1: mouse collagen (type III) in descending aorta sections (mouse, UniProt P08121 155-1219, limits assumed)
T1 construct: The target is tissue; also called mouse type III collagen; mouse aorta sections
T1 sequence (looked up): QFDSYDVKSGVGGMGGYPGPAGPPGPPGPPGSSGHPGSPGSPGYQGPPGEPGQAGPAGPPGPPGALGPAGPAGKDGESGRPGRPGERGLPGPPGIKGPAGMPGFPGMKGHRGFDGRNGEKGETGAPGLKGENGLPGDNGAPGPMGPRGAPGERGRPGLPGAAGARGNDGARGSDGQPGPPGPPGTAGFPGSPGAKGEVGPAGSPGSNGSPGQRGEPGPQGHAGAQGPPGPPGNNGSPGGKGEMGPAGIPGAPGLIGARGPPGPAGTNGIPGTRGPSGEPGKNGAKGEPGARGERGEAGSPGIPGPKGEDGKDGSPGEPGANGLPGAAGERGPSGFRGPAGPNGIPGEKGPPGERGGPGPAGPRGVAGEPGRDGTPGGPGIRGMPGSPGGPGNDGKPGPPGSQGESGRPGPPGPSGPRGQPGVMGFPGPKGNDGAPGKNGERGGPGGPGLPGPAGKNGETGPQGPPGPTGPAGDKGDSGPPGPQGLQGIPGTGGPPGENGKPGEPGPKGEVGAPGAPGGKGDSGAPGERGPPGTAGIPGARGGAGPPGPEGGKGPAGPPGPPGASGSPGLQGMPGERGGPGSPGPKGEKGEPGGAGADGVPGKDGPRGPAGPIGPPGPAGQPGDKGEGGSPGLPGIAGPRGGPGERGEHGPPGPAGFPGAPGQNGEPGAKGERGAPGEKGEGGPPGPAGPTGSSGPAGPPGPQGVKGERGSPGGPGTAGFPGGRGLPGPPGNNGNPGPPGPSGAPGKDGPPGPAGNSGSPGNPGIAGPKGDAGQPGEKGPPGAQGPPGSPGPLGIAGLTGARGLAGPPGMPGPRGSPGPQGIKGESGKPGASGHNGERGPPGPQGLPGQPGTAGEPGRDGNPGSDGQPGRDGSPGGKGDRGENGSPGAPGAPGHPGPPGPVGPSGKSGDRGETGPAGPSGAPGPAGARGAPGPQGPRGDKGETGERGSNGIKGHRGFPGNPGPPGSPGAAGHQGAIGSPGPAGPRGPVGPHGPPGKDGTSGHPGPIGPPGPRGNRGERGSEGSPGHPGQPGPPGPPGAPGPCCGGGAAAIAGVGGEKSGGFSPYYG

B1: human TANGO 268 (glycoprotein VI, GPVI) (receptor)
chain: QSGPLPKPSLQALPSSLVPLEKPVTLRCQGPPGVDLYRLEKLSSSRYQDQAVLFIPAMKRSLAGRYRCSYQNGSLWSLPSDQLELVATGVFAKPSLSAQPGPAVSSGGDVTLQCQTRYGFDQFALYKEGDPAPYKNPERWYRASFPIITVTAAHSGTYRCYSFSSRDPYLWSAPSDPLELVVTGTSVTPSRLPTEPPSSVAEFSEATAELTVSFTNKVFTTETSRSITTSPKESDSPAGPARQYYTKGNLVRICLGAVILIILAGFLAEDWHSRRKRLRHRGRAVQRPLPPLPPLPQTRKSHGGQDGGRQDVHSRGLCS
notes: Full-length protein: in lysates of transfected CHO cells and of human platelets (blots), on transduced U937, K562 and HEL cells, and on human platelets; Signal peptide 1-20 is a SIGNALP prediction; also called hGPVI; rhGPVI
B2: convulxin (Cvx), purified from the venom of Crotalus durissus terrificus (ligand)
chain 1: GLHCPSDWYYYDQHCYRIFNEEMNWEDAEWFCTKQAKGAHLVSIKSAKEADFVAWMVTQNIEESFSHVSIGLRVQNKEKQCSTKWSDGSSVSYDNLLDLYITKCSLLKKETGFRKWFVASCIGKIPFVCKFPPQC
chain 2: GFCCPSHWSSYDRYCYKVFKQEMTWADAEKFCTQQHTGSHLVSFHSTEEVDFVVKMTHQSLKSTFFWIGANNIWNKCNWQWSDGTKPEYKEWHEEFECLISRTFDNQWLSAPCSDTYSFVCKFEA
B3: mouse TANGO 268 (murine GPVI) (receptor)
chain: QSGPLPKPSLQAQPSSLVPLGQSVILRCQGPPDVDLYRLEKLKPEKYEDQDFLFIPTMERSNAGRYRCSYQNGSHWSLPSDQLELIATGVYAKPSLSAHPSSAVPQGRDVTLKCQSPYSFDEFVLYKEGDTGPYKRPEKWYRANFPIITVTAAHSGTYRCYSFSSSSPYLWSAPSDPLVLVVTGLSATPSQVPTEESFPVTESSRRPSILPTNKISTTEKPMNITASPEGLSPPIGFAHQHYAKGNLVRICLGATIIIILLGLLAEDWHSRKKCLQHRMRALQRPLPPLPLA
notes: Full-length protein on retrovirally transduced FDC-P1, 32D and Ba/F3 cells; Signal peptide 1-21 is a SIGNALP prediction; also called mGPVI; rmGPVI
B4: human neurotactin conjugated to human Fc (Fc fusion, UniProt P78423 25-341, looked up)
chain: QHHGVTKCNITCSKMTSKIPVALLIHYQQNQASCGKRAIILETRQHRLFCADPKEQWVKDAMQHLDRQAAALTRNGGTFEKQIGEVKPRTTPAAGGMDESVVLEPEATGESSSLEPTPSSQEAQRALGTSPELPTGVTGSSGTRLPPTPKAQDGGPVGTELFRVPPVSTAATWQSSAPHQPGPSLWAEAKTSEAPSTQDPSTQASTASSPAPEENAPSEGQRVWGQGQSPRPENSLEREEMGPVPAHTDAFQDWGPGSMAHVSVVPVSSEGTPSREPVASGSWTPKAEEPIHATMDPQRLGVLITPVPDAQAATRRQ
notes: Negative-control Fc fusion; not shown: human Fc

Key:
[1] = target: soluble human GPVI-Fc (extracellular domain of GPVI fused to human IgG1 Fc) (human) (UniProt Q9HCN6); test: SPR (BIAcore), GPVI-Fc coupled to the chip, bivalent model; negative control
[2] = target: baboon GPVI on baboon platelets (baboon); test: flow cytometry, washed baboon platelets, FITC anti-mouse IgG; negative control
[3] = target: B1; test: flow cytometry, washed human platelets, FITC anti-mouse IgG; negative control
collagen type I = test: cell-based or functional assay
[4] = target: B2; test: ligand blot with 125I-Cvx on lysates of transfected CHO cells and of platelets
[5] = target: T2, bovine serum albumin (BSA) (UniProt P02769 25-607); test: adhesion of 51Cr-labelled GPVI-transduced U937 cells to immobilized BSA
T2 construct: Control surface in the cell adhesion assay
T2 sequence (P02769 25-607 limits assumed): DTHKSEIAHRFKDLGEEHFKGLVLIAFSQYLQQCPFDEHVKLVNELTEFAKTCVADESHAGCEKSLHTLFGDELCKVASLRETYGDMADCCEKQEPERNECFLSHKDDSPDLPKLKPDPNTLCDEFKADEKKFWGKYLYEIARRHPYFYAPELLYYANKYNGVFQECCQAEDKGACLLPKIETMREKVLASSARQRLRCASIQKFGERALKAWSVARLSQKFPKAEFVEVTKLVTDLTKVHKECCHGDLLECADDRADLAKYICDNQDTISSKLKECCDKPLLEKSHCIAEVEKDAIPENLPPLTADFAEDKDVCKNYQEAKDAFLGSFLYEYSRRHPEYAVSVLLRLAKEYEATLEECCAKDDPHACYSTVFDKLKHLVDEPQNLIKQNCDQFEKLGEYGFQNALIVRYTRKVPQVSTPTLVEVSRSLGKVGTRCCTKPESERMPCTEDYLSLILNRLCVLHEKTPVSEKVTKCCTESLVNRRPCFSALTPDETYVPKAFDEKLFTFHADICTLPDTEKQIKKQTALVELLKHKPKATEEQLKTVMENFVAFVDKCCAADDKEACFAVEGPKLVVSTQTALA

[6] = target: B1
[7] = target: baboon GPVI on baboon platelets (baboon); test: flow cytometry, washed baboon platelets; positive control
[8] = target: T2, bovine serum albumin (BSA); test: adhesion of 51Cr-labelled GPVI-transduced FDC-P1 cells to immobilized BSA
[9] = target: B2; test: flow cytometry, FITC-Cvx
[10] = target: T1, mouse collagen (type III) in descending …; test: immunofluorescence on mouse descending aorta sections, anti-human Fc detection
Method: The descending aorta was dissected and postfixed for 1.5 hours in the same fixative at room temperature. […] The descending aorta was then frozen in Tissue Tek OCT (Sakura, Tokyo, Japan). Frozen 12 micrometer cross sections of the descending aorta were cut using a cryostat (Microm, VWR, West Chester, Pa.) onto poly-1-Lysine (3 mg/ml; Sigma) coated Superfrost Plus microscope slides (VWR). Slides were stored at −80° C. until staining.
Slides containing descending aorta sections were placed at 37° C. for 6 minutes and then tissue sections were encircled with the hydrophobic substance contained in a PAP pen (RPI, Mount Prospect, Ill.). Slides were then washed 2 times for 7.5 minutes each in 0.1 M phosphate buffer, pH 6.9 (PB). Sections were then incubated for 1 hour at room temperature in a pool of solution, bordered by the hydrophobic markings, containing a 1:50 dilution of normal donkey serum (Jackson ImmunoResearch Laboratories, Inc., West Grove, Pa.) diluted with PBX. PBX is made by adding 300 microliters of Triton X-100 (Sigma) to 100 ml of 0.1M PB. Slides were than washed three times for 10 minutes each in 0.1M PB. […] Slides were then washed three times for 10 minutes each in 0.1M PB. […] Finally, slides were coverslipped using Vectashield (Vector Laboratories, Burlingame, Calif.) and the sites of GPVI binding to mouse descending aorta sections was observed using a fluorescence microscope.

monoclonal antibody 7120.2 (negative control)
Kd [1]: 210 nM
Baboon fluorescence intensity [2]: 10
Baboon platelets % positive [2]: 9%
Human fluorescence intensity [3]: 7
Human platelets % positive [3]: 1.6%

monoclonal antibody 7H14.1 (negative control)
Baboon fluorescence intensity [2]: 9
Baboon platelets % positive [2]: 6.8%
Human fluorescence intensity [3]: 7
Human platelets % positive [3]: 1.4%

recombinant human soluble GPVI:Fc fusion protein (rhusGPVI:Fc) (from UniProt Q9HCN6 21-269)
concentration of rhusGPVI:Fc needed for inhibition, against that needed for Cvx (collagen type I): 10 fold

B1
binding result [4]: binds
binding result [5]: no binding

B2
IC50 [6]: 4 nM
Baboon fluorescence intensity [7]: 72
Baboon platelets % positive [7]: 95%

B3
binding result [8]: no binding
binding result [9]: binds

B4
binding result [10]: no binding
